We go through two substances from article PMC6527236.

Series [1] relates to φ29 SSB Y57A (Bacillus subtilis phage φ29). In words: EMSA. The settings on record: 60 μM SSB, 10 mM Mg2+, more retarded band at the highest concentration only, EMSA: 12 mM Tris-HCl pH 7.5, 10 mM MgCl2, 1 mM DTT, 4% glycerol, 0.1 mg/ml BSA, 3 nM DNA, 15 min, 4 °C, unwinding: 50 mM Tris-HCl pH 7.5, 4% glycerol.
The test system of series [2] is φ29 SSB Y50A (Bacillus subtilis phage φ29). In words: EMSA. To be noted: 60 μM SSB, 10 mM Mg2+, EMSA: 12 mM Tris-HCl pH 7.5, 10 mM MgCl2, 1 mM DTT, 4% glycerol, 0.1 mg/ml BSA, 3 nM DNA, 15 min, 4 °C, unwinding: 50 mM Tris-HCl pH 7.5, 4% glycerol.
For series [3], the system named is φ29 SSB Y57A (Bacillus subtilis phage φ29). In words: unwinding (oligonucleotide displacement gel). To be noted: 80 μM SSB, no Mg2+ listed, helix destabilization, indirect binding read-out, EMSA: 12 mM Tris-HCl pH 7.5, 10 mM MgCl2, 1 mM DTT, 4% glycerol, 0.1 mg/ml BSA, 3 nM DNA, 15 min, 4 °C, unwinding: 50 mM Tris-HCl pH 7.5, 4% glycerol.
The test system of series [4] is φ29 SSB Y50A (Bacillus subtilis phage φ29). In words: unwinding (oligonucleotide displacement gel). To be noted: 80 μM SSB, no Mg2+ listed, helix destabilization, indirect binding read-out, EMSA: 12 mM Tris-HCl pH 7.5, 10 mM MgCl2, 1 mM DTT, 4% glycerol, 0.1 mg/ml BSA, 3 nM DNA, 15 min, 4 °C, unwinding: 50 mM Tris-HCl pH 7.5, 4% glycerol.

Regarding 216mer yshC fragment, heat denatured, the binding signal (% of wild-type binding) in series [1] worked out at 17; in series [2], 96.

For M13mp18 ssDNA annealed to 17mer, the figures for the binding signal (% of wild-type 17mer displacement) in series [3] and in series [4] were 17 and 97, respectively.
